The target in assay [1] is recombinant human IL-6R-extracellular domain (ECD) (human) (UniProt P08887). Briefly: SPR. On the technique in general: In SPR one partner is held on a chip, and binding of the other changes the refractive index at the surface.
Assay [2] has the same target. Description: direct ELISA on IL-6R. (In an ELISA, binding on a coated surface is turned into a signal by an enzyme label.)
Assay [3] addresses IL-6R on human myeloma U266B1 cells (human) (UniProt P08887). Briefly: cell-based or functional assay.
For assay [4] the target is unchanged. Description: cell-based or functional assay. The source holds these as a separate data set.
Assay [5] shares this target. Description: FACS on U266B1 cells.
Assay [6] has the same target. Briefly: FACS binding to IL-6R on U266B1 cells.
Assay [7] has the same target. Briefly: FACS binding to IL-6R on U266B1 cells. This is another data set of the same source. On the technique in general: Flow cytometry measures light scatter and fluorescence of single cells or particles in a stream.
For assay [8], the target named is recombinant human IL-6R-extracellular domain (ECD) (human) (UniProt P08887). Description: receptor-ligand ELISA, blocking of IL-6 binding to IL-6R.
The target is the same in assay [9]. The description is as above. This is another data set of the same source.

Where two headings read alike, the source gives them in different places.

What is called Kd is the concentration at which binding is half-saturated. One may read the koff as the first-order rate constant of dissociation. As a reminder, the kon is the rate constant with which the complex forms. For orientation: EC50 means the concentration needed to bring the measured effect to its halfway point. In general, EC50 (read off the curve) refers to the concentration at which the effect is half-maximal. Read a low EC50 (read off the curve) as an effect from little substance. As usually defined, the IC50 is the concentration at which inhibition is half-maximal.

Sequence of recombinant human IL-6R-extracellular domain (ECD) (human) (P08887 20-365): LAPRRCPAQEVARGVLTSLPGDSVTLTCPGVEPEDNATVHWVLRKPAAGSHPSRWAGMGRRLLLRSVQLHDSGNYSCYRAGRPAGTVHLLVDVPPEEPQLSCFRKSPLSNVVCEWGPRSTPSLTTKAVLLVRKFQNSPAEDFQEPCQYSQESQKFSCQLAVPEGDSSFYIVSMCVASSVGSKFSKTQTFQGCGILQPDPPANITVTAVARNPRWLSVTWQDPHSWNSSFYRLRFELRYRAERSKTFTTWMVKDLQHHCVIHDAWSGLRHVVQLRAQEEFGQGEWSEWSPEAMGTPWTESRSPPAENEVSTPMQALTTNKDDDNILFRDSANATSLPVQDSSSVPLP
Sequence of IL-6R on human myeloma U266B1 cells (human) (P08887 20-468): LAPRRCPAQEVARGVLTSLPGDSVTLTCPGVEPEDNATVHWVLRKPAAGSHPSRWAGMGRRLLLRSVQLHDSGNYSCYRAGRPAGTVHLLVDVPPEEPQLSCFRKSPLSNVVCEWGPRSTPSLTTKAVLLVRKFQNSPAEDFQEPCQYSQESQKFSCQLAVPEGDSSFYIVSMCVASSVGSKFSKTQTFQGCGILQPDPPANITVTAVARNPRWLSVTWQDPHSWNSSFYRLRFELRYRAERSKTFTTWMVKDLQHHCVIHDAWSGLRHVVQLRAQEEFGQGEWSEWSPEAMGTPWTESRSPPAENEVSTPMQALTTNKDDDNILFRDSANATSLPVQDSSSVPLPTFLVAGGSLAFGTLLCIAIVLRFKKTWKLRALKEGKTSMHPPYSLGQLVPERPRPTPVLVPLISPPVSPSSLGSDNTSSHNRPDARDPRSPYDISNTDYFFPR

B1: Tocilizumab (antibody, part only; not given: constant regions, V domains shown, not shown: another chain or arm of the molecule)
VH: QVQLQESGPGLVRPSQTLSLTCTVSGYSITSDHAWSWVRQPPGRGLEWIGYISYSGITTYNPSLKSRVTMLRDTSKNQFSLRLSSVTAADTAVYYCARSLARTTAMDYWGQGSLVTVSS
VL: DIQMTQSPSSLSASVGDRVTITCRASQDISSYLNWYQQKPGKAPKLLIYYTSRLHSGVPSRFSGSGSGTDFTFTISSLQPEDIATYYCQQGNTLPYTFGQGTKVEIK
For B1, the Kd in assay [1] is 3.85 nM. Moreover, the koff in [1] turned out to be 0.00097 s⁻¹. The kon in assay [1] is 252000 M⁻¹ s⁻¹. Besides, the results for the EC50 in assay [2], in [6] and in [7] were 0.0458 µg/mL, 0.206 µg/mL and 0.602 µg/mL, respectively. For the same molecule, the TF-1 proliferation IC50 in [3] was determined as 0.04 µg/mL; in assay [4] it was 0.214 µg/mL. The molecule further displayed a 50% effective concentration (EC50 (read off the curve)) in [5] of 0.6 µg/mL. Also, the values for the IC50 in assay [8] and in [9] were 0.56 µg/mL and 1.1 µg/mL, respectively.

Source of the values: US20120225060A1.
